Results reported in patent US20130129845A1, “SCREENING METHOD FOR CHRONIC INFLAMMATION INHIBITORS OR CANCER METASTASIS INHIBITORS USING INHIBITION OF BINDING BETWEEN EMMPRIN AND S100A9 AS INDEX” (priority 2010, published 2013).

T1: EMMPRIN (Homo sapiens, UniProt P35613)
T1 construct: cDNA coding for the human EMMPRIN extracellular domain (with a myc-HA-Flag-6His tag added at the C-terminus); made in house; host or cells: HEK293 (transfected)
T1 sequence (P35613 138-325 limits assumed): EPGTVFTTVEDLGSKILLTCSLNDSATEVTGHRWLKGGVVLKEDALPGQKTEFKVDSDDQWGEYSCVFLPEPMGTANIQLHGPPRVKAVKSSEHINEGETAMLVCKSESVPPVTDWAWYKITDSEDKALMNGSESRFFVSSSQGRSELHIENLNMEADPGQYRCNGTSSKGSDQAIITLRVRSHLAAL

B1: soluble EMMPRIN: purified recombinant human EMMPRIN extracellular domain with myc-HA-Flag-6His tag at the C-terminus (protein, UniProt P35613 138-323, looked up)
extracellular domain: EPGTVFTTVEDLGSKILLTCSLNDSATEVTGHRWLKGGVVLKEDALPGQKTEFKVDSDDQWGEYSCVFLPEPMGTANIQLHGPPRVKAVKSSEHINEGETAMLVCKSESVPPVTDWAWYKITDSEDKALMNGSESRFFVSSSQGRSELHIENLNMEADPGQYRCNGTSSKGSDQAIITLRVRSHLA
modifications: extracellular domain C-terminal myc-HA-Flag-6His tag
notes: purified recombinant human EMMPRIN extracellular domain with myc-HA-Flag-6His tag at the C-terminus

Tests used:
EMMPRIN = molecular target: T1, EMMPRIN; assay: Identification of EMMPRIN-binding proteins by immunoprecipitation and Western blotting; details: culture supernatants mixed; HA and Myc antibody; FIG. 6
Text: EMMPRIN-binding proteins were identified by immunoprecipitation and Western blotting, for confirmation that EMMPRIN is a novel receptor for S100 protein. […] The S100 proteins used were S100A8 and S100A9 protein. HEK293 cells were transfected with plasmids coding for the proteins (with HA tags attached to the C-termini), and the proteins were isolated from the respective culture supernatants.
In order to analyze binding between EMMPRIN and S100A8 and S100A9 protein, the culture supernatants containing the respective proteins were mixed and reacted, and then HA antibody and Myc antibody were used for immunoprecipitation.

[1] = system: IL-8 (CXCL-8), TNFα, IL1-F9 and CXCL-1 expression; assay: Cytokine expression in keratinocytes (NHEK) by real-time quantitative PCR; format: cell-based, human; details: S100A9-added sample with control siRNA (A9/LF); FIG. 4
Procedure: (§1) Using real-time quantitative PCR, it was then investigated whether addition of S100A9 also accelerates expression of IL-8 (CXCL-8), TNFα, IL1-F9 and CXCL-1, and whether suppressing expression of EMMPRIN has any effect on expression of these cytokines. The same method was also used to examine the effect of S100A9 stimulation on MMP-1 and MMP-10 expression.
(§2) Growth-phase NHEK, cultured in EpiLife™-KG2 (Cascade Biologies) were exposed for 3 hours after exchanging to the same culture medium containing and not containing 2 mM calcium chloride and S100A8 or S100A9 (10 μg/ml each), and a MagNA™ Pure mRNA extraction kit and a MagNA Pure™ device (Roche Diagnostics, Tokyo, Japan) were used for extraction of the mRNA. The obtained mRNA was reverse transcripted using SuperScript™ II (Invitrogen Corporation, Carlsbad, Calif., U.S.). Real-time quantitative PCR was performed on a LightCycler high-speed thermal cycler system using a LightCycler FastStart DNA master SYBR green I kit (Roche Diagnostics), according to the manufacturer's instructions. […] The expression level of each gene was quantitatively analyzed using LightCycler analysis software (NPL 11: Morrison T B et al., Biotechniques (1998)24:954-958, 960, 962). […]

MMP-1 expression = assay: Effect of soluble EMMPRIN on MMP expression in keratinocytes; format: cell-based, human
Text: It was therefore investigated whether soluble EMMPRIN actually accelerates expression of MMP.
It is believed that MMP expression was suppressed when soluble EMMPRIN and S100A9 were both present because S100A9 which induces MMP production was scavenged by soluble EMMPRIN, with both forming a bonded complex.

[2] = system: MMP-1 and MMP-10 expression; assay: MMP expression in keratinocytes by real-time quantitative PCR; format: cell-based, human; details: FIG. 5
Procedure: as §1, §2

| Molecule | binding to EMMPRIN (band in Western blot after immunoprecipitation) (EMMPRIN) | expression of cytokines (IL-8, TNFα, IL1-F9, CXCL-1) on addition of S100A9 [1] | MMP-1 expression (MMP-1 expression; S100A9 alone, FIG. 7) | expression of MMP on addition of S100A9 [2] | MMP-1-inducing effect (MMP-1 expression; added to keratinocytes at 0.025, 0.25 and 2.5 μM, FIG. 7) | MMP1 expression-accelerating effect of S100A9 (MMP-1 expression; both soluble EMMPRIN and S100A9 added to keratinocytes, FIG. 7) | IL-8 expression (MMP-1 expression; results not shown) | MMP-10 expression (MMP-1 expression; results not shown) | TNFα expression (MMP-1 expression; results not shown) |
| --- | --- | --- | --- | --- | --- | --- | --- | --- | --- |
| S100A8: EF-hand calcium-binding S100 family protein | only a band for EMMPRIN near 32 kDa was confirmed | – | – | – | – | – | – | – | – |
| S100A9: EF-hand calcium-binding S100 family protein, added to keratinocytes as stimulus | a band representing their bound form was confirmed near 47.5 kDa | induced expressed of all of the cytokines | notably accelerated | accelerated expression of MMP | – | – | – | – | – |
| B1 | – | – | – | – | virtually no MMP-1-inducing effect | significantly suppressed | significantly suppressed | significantly suppressed | significantly suppressed |
